Assay results from publication PMC7990132.

Target: FcγRI (UniProt P12314)
Assay: BLI

Sequence of UniProt P12314 (P12314 16-374): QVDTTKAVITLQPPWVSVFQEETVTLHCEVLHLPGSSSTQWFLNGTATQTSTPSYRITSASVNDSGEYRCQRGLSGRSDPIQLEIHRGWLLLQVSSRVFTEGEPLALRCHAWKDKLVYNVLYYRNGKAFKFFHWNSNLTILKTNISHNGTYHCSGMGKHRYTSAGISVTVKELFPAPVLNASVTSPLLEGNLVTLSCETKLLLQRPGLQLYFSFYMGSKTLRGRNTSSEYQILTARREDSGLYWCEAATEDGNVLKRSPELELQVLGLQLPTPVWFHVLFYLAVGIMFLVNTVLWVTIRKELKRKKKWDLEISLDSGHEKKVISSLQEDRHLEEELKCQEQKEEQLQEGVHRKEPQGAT

Sintilimab (antibody)
Kd: 10 nM
